Measurements taken from patent publication US20090036365A1.

Target: human plasmin (human) (UniProt P00747)
Assay: display phage binding to immobilised protease; this row is the reference taken as unit

Chain of human plasmin (human) (P00747 97-810 limits assumed): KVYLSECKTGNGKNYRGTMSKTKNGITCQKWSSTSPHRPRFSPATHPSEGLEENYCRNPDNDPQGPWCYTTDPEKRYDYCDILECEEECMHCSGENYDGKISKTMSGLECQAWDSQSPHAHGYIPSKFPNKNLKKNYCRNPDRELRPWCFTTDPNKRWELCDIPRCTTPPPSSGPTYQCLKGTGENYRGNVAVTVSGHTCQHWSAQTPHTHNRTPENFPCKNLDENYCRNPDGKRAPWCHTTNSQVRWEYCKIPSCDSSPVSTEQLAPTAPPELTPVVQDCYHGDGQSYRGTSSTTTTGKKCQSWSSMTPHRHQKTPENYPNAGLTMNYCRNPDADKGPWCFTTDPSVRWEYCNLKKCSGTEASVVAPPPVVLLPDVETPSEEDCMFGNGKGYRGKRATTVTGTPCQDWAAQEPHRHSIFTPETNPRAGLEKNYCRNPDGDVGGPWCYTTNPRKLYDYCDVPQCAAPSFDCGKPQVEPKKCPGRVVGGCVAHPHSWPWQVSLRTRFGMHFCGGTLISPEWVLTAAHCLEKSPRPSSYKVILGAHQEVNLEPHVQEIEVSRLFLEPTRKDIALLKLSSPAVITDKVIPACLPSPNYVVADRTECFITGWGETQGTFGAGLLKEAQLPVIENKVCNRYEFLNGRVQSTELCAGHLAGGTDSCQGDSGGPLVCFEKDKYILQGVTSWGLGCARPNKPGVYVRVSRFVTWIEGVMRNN

- relative binding (LACI-K1 phage = unit) (fold of LACI-K1 phage): 1
Substance: LACI-K1 (first Kunitz domain of human lipoprotein-associated coagulation inhibitor) (from UniProt P10646 50-107)
